# Test results reported in patent publication US8536121B2, “Methods and reagents for the diagnosis, prevention and treatment of insulin resistance using beta-arrestin2 and its up-regulators” (Shanghai Institutes for Biological Sciences, CAS, priority 2008, dated 2013).
# B1: βarrestin2 1-185: truncated form of βarrestin2 containing amino acids 1-185, dominant negative mutant; overexpressed in Hep3B or delivered by adenovirus (protein)
# chain: MGEKPGTRVFKKSSPNCKLTVYLGKRDFVDHLDKVDPVDGVVLVDPDYLKDRKVFVTLTCAFRYGREDLDVLGLSFRKDLFIATYQAFPPVPNPPRPPTRLQDRLLRKLGQHAHPFFFTIPQNLPCSVTLQPGPEDTGKACGVDFEIRAFCAKSLEEKSHKRNSVRLVIRKVQFAPEKPGPQPSA
# modifications: left off: small tags and cut ends
# notes: overexpressed in Hep3B or delivered by adenovirus
# B2: βarrestin2 186-409: truncated mutant of βarrestin2 that interacts with IR but not Akt or Src; overexpressed in Hep3B or delivered by adenovirus (protein)
# chain: ETTRHFLMSDRSLHLEASLDKELYYHGEPLNVNVHVTNNSTKTVKKIKVSVRQYADICLFSTAQYKCPVAQLEQDDQVSPSSTFCKVYTITPLLSDNREKRGLALDGKLKHEDTNLASSTIVKEGANKEVLGILVSYRVKVKLVVSRGGDVSVELPFVLMHPKPHDHIPLPRPQSAAPETDVPVDTNLIEFDTNYATDDDIVFEDFARLRLKGMKDDDYDDQLC
# modifications: left off: small tags and cut ends
# notes: as for B1
# How the values were obtained:
# Akt [1] = assay: Insulin-stimulated Akt phosphorylation in Hep3B hepatocytes treated with inhibitors (immunoblot); assay type: cell-based, human; settings: 10 μM PP2 or 100 nM Wortmannin for 30 min, then 100 nM insulin
# Procedure: (§1) FIG. 4A, Activation of PI3K by insulin in livers of βarr2-ko mice (n=6), βarr2-tg mice (n=6) and their wild type littermates (n=6). Mice were injected with either saline or insulin (1 U·kg^−1) for 10 min. PI3K were immuno-purified from liver extracts and PI3K activity were measured by ELISA. Data are presented as mean ±s.e.m. *P<0.05, **P<0.005, versus control. FIG. 4B, FIG. 4C, Activation of Akt and downstream targets by insulin in livers of βarr2-ko mice (n=6) (FIG. 4B), βarr2-tg mice (n=6) (FIG. 4C) and their wild type littermates (n=6). Liver protein extracts prepared as in A were used for immunoblot analysis of pAkt, pFoxol, and pGSK3. […] FIG. 4E, Src-dependent activation of Akt. Hep3B hepatocytes were treated with or without 10 μM Src inhibitor PP2 or 100 nM PI3K inhibitor Wortmanin for 30 min, and then stimulated by 100 nM insulin. Phosphorylation levels of Akt at serine/threonine or tyrosine (n=6) were shown. […]
# (§2) After mouse is sacrificed, mouse tissues are quickly excised and frozen in liquid nitrogen. Tissue lysate is prepared and protein concentration is determined by Bradford method. […] For immunoblotting, protein bands, emitting infrared fluorescence through excitation of IRDye800CW conjugated secondary antibody, are obtained by Odyssey infrared imaging system, followed by using Scion Image software (Li-Cor Bioscience, Lincoln, Nebr., USA) to perform quantitative analysis. […]
# PI3K = PI3K activity (ELISA) in liver of mice injected with insulin; assay type: in vivo, mouse; settings: insulin 1 U·kg^−1 for 10 min; wild type, βarr2-ko and βarr2-tg mice
# Procedure: as §1, with “shown. FIG. 4F, Tyrosine phosphorylation of Akt induced by insulin in livers of βarr2-ko mice (n=6), βarr2-tg mice (n=6) and their wild type littermates (n=6). Akt immuno-purified from protein extracts made in FIG. 4B and FIG. 4C was subjected to immunoblot using antibodies against phosphorylated tyrosine. All mice were 8-weeks old fed with a regular diet. Data are presented as mean ±s.e.m. *P<0.05, **P<0.005, versus control.” for “shown.”
# Akt [2] = assay: Akt phosphorylation in liver of mice injected with insulin (immunoblot); assay type: in vivo, mouse
# Procedure: as §1, §2
# [3] = system: Akt/βarrestin2/Src complex; assay: Akt/βarrestin2/Src complex formation in liver of C57BL/6 mice injected with insulin (immunoprecipitation); assay type: in vivo, mouse; settings: C57BL/6 mice livers, intraperitoneal insulin 1 U·kg^−1, time-dependent
# Procedure: (§3) C57BL/6 mice (n=6) were injected with 1 U·kg^−1 insulin for the indicated times, and liver protein extracts were prepared for immunoprecipitation using anti-Akt antibodies. […] Liver protein extracts prepared as described in a were subjected to immunoprecipitation for IRβ. […] Liver protein extracts prepared from βarr2-ko (n=6), βarr2-tg (n=6), their wild type littermates (n=6) as described were subjected to immunoprecipitation for IRβ. Akt and Src associated with IRβ were detected on immunoblots. […] Hep3B hepatocytes overexpressing HA-βarrestin2 186-409 or βGal were subjected for immunoblot analysis of pAkt, pFoxol, and pGSK3. All mice were 8-weeks old fed with a regular diet.
# as §2, with “method. For immunoprecipitation, add relevant antibodies to cell lysate, incubate at 4° C. overnight, add protein A or protein G agarose beads, incubate at 4° C. for 2 h.” for “method.”
# [4] = system: wild type littermates and βarr2-ko mice; assay: Insulin tolerance tests (ITTs); assay type: in vivo, mouse; settings: intraperitoneal 1 U·kg^−1 insulin
# Procedure: (§4) For GTTs, mice are injected intraperitoneal with glucose after starvation for 6 hours. Blood glucose is measure at indicated time points. Mice are injected intraperitoneally under fed conditions for ITTs. Blood are collected and determined the glycemia using a glucometer (Roche Accu-chek). Serum insulin levels are measured using rat/mouse ELISA kit.
# db/db diabetic mice = assay: Adenovirus injection into db/db diabetic mice (blood glucose, GTTs, ITTs, body weight, food intake, liver βarrestin2); assay type: in vivo, mouse; settings: adenovirus encoding mutant, vs βGal
# Procedure: (§5) βarr1-ko and βarr2-ko mice are provided by Dr. Robert J. Lefkowitz (Duke University Medical Center, Durham, N.C.). βarr1-tg and βarr2-tg mice are generated as described (Shi, Y., et al., “Critical regulation of CD4+ T cell survival and autoimmunity by beta-arrestin 1,” Nature Immunol., 8, 817-24 (2007)). All other mice are from Shanghai Laboratory Animal Center, Chinese Academy of Sciences. Animal experiments are performed in accordance with the National Institutes of Heath Guide for the Care and Use of Laboratory Animals. Mice are fed with a regular diet (Formulab 5008, Labdiet 5053) or high-fat diet (55% fat calories) (Harlan-Teklad 93075) and have free access to water and diet. Adenovirus (7×10^9 viral particle/100 μl saline) is injected into the tail vein of db/db mice and C57BL/6 to specifically target the liver. Body weight and food intake are measured as described in: Netea, M. G., et al., “Deficiency of interleukin-18 in mice leads to hyperphagia, obesity and insulin resistance,” Nature Medicine, 12, 650-6 (2006).
# as §4, with “kit. […]” for “kit.”
# C57BL/6 mice = assay: Adenovirus encoding βarrestin2 mutants injected into C57BL/6 mice (blood glucose, GTTs, ITTs); assay type: in vivo, mouse; settings: for insulin tolerance in ITTs: 1 U·kg^−1, 7 days after adenovirus injection; for glucose tolerance in GTTs: 1 g·kg^−1, 7 days after adenovirus injection; for blood glucose levels: adenovirus, all time points, vs control mice
# Text: C57BL/6 mice were 8 -weeks old fed on regular diet (RD). Data are presented as mean ±s.e.m. *P<0.05, **P<0.005, versus control.
# as §5, §4
# The CsCl purified adenovirus are used as a saline solution (7×10^9 virus particles per […]) and injected through tail vein.
# Akt/Src complex = assay: Akt/Src interaction in Hep3B hepatocytes overexpressing βarrestin2 mutant (anti-Akt immunoprecipitation); assay type: cell-based, human; settings: overexpressed in Hep3B hepatocytes, vs βGal
# Text: (§6) FIG. 5B, Interaction of Akt and Src in liver of wild type littermates but not βarr2-ko mice. Liver protein extracts from βarr2-ko mice (n=6) and their wild type littermates (n=6) were used for immunoprecipitation by anti-Akt or anti-Src antibodies. FIG. 5C, Enhanced interaction of Akt and Src in liver of βarr2-tg mice. Liver protein extracts from βarr2-tg mice (n=6) and their wild type littermates (n=6) were used for immunoprecipitation by anti-Akt or anti-Src antibodies. […] HA-βarrestin2 that co-immunoprecipitated from Hep3B hepatocytes overexpressing Akt or Src without or with HA-βarrestin2, HA-βarrestin2 1-185 was shown on immunoblots using anti-HA antibodies (n=3). FIG. 5F, Hep3B hepatocytes overexpressing HA-βarrestin2 1-185 or βGal were subjected to immunoprecipitation using anti-Akt antibodies. Akt, Src in the immunopurified complex were shown on immunoblots (n=3). […]
# as §2
# Akt [5] = assay: Insulin-stimulated pAkt, pFoxo1, pGSK3 in Hep3B hepatocytes overexpressing βarrestin2 mutants (immunoblot); assay type: cell-based, human; settings: overexpressed in Hep3B hepatocytes, vs βGal
# Text: FIG. 5B, Interaction of Akt and Src in liver of wild type littermates but not βarr2-ko mice. Liver protein extracts from βarr2-ko mice (n=6) and their wild type littermates (n=6) were used for immunoprecipitation by anti-Akt or anti-Src antibodies. FIG. 5C, Enhanced interaction of Akt and Src in liver of βarr2-tg mice. Liver protein extracts from βarr2-tg mice (n=6) and their wild type littermates (n=6) were used for immunoprecipitation by anti-Akt or anti-Src antibodies. […] HA-βarrestin2 that co-immunoprecipitated from Hep3B hepatocytes overexpressing Akt or Src without or with HA-βarrestin2, HA-βarrestin2 1-185 was shown on immunoblots using anti-HA antibodies (n=3). FIG. 5F, Hep3B hepatocytes overexpressing HA-βarrestin2 1-185 or βGal were subjected to immunoprecipitation using anti-Akt antibodies. Akt, Src in the immunopurified complex were shown on immunoblots (n=3). […] Hep3B hepatocytes overexpressing HA-βarrestin2 1-185 or βGal were stimulated by insulin and then subjected to immunoblot analysis of pAkt, pFoxol, and pGSK3. All mice were 8-weeks old fed with a regular diet.
# as §3
# (§7) After mouse is sacrificed, mouse tissues are quickly excised and frozen in liquid nitrogen. Tissue lysate is prepared and protein concentration is determined by Bradford method. For immunoprecipitation, add relevant antibodies to cell lysate, incubate at 4° C. overnight, add protein A or protein G agarose beads, incubate at 4° C. for 2 h. Proteins that bind protein A or protein G agarose beads are washed in SDS sample buffer and treated at 50° C. for 20 min followed by SDS-PAGE separation and through immunoblotting method to determine relevant proteins. For immunoblotting, protein bands, emitting infrared fluorescence through excitation of IRDye800CW conjugated secondary antibody, are obtained by Odyssey infrared imaging system, followed by using Scion Image software (Li-Cor Bioscience, Lincoln, Nebr., USA) to perform quantitative analysis. […]
# Src = biological target: T1, Src (Homo sapiens, UniProt P12931); assay: Co-immunoprecipitation of βarrestin2 truncation mutants with Src in Hep3B hepatocytes; assay type: binding; settings: HA-tagged mutant
# T1 construct: Full length of Akt and Src are cloned into modified pcDNA3 vector in-frame with HA or Flag at the N-terminus; expressed in transfected cells; host or cells: Hep3B
# Text: as §6, with “(n=3).” for “(n=3). FIG. 5F, Hep3B hepatocytes overexpressing HA-βarrestin2 1-185 or βGal were subjected to immunoprecipitation using anti-Akt antibodies. Akt, Src in the immunopurified complex were shown on immunoblots (n=3).”
# (§8) C57BL/6 mice (n=6) were injected with 1 U·kg^−1 insulin for the indicated times, and liver protein extracts were prepared for immunoprecipitation using anti-Akt antibodies. […] Akt and Src associated with IRβ were detected on immunoblots. […]
# as §2
# Akt [6] = assay: Co-immunoprecipitation of βarrestin2 truncation mutants with Akt in Hep3B hepatocytes; assay type: binding, human; settings: HA-tagged mutant
# Text: as §6, with “(n=3).” for “(n=3). FIG. 5F, Hep3B hepatocytes overexpressing HA-βarrestin2 1-185 or βGal were subjected to immunoprecipitation using anti-Akt antibodies. Akt, Src in the immunopurified complex were shown on immunoblots (n=3).”
# as §8, §2
# IRβ = biological target: T2, IRβ (Homo sapiens, UniProt P06213); assay: Co-immunoprecipitation of βarrestin2 truncation mutants with IRβ in Hep3B hepatocytes; assay type: binding; settings: HA-tagged mutant
# T2 construct: IR immunoprecipitated from Hep3B hepatocytes; endogenous in cells; host or cells: Hep3B
# Procedure: as §3
# as §7, with “Proteins that bind protein A or protein G agarose beads are washed in SDS sample buffer and treated at 50° C. for 20 min followed by SDS-PAGE separation and through immunoblotting method to determine relevant proteins.” left out
Molecule,insulin resistance (db/db diabetic mice),insulin tolerance in ITTs (C57BL/6 mice),glucose tolerance in GTTs (C57BL/6 mice),blood glucose levels (C57BL/6 mice),insulin-stimulated phosphorylation (activation) of Akt (Akt [5]),interaction with Src (Src),interaction with Akt (Akt [6]),also measured
CC(C)(C)n1nc(-c2ccc(Cl)cc2)c2c(N)ncnc21 [PP2],–,–,–,–,–,–,–,serine/threonine phosphorylation of Akt (Akt [1]): remarkably reduced; tyrosine phosphorylation of Akt (Akt [1]): remarkably reduced
insulin: insulin injected into mice or added to cells as stimulus,–,–,–,–,–,–,–,"increase in PI3K activity in liver (PI3K): ~3 fold; increase in tyrosine phosphorylation of Akt (Akt [2]; liver of wild type mice, insulin stimulation): ~2 fold; increase in the phosphorylation of Akt at Thr308 or Ser473 in liver (Akt [2]; wild type mice, insulin 1 U·kg^−1 for 10 min): ~3 fold; Akt/Src interactions [3]: marked increase; Akt/βarrestin2 association [3]: marked increase; blood glucose in ITTs [4]: time-dependent reduction"
B1,aggravates,impair,impair,higher,markedly reduced,interacts with Src,not Akt,Akt/Src interactions (Akt/Src complex): inhibits; insulin-stimulated phosphorylation of Foxo1 (Akt [5]): markedly reduced; insulin-stimulated phosphorylation of GSK3 (Akt [5]): markedly reduced
B2,aggravates,impair,impair,higher,suppresses,not Akt or Src,not Akt or Src,interaction with IRβ (IRβ): interacts with IRβ
